Legend:
[1] = target: T1, PSP (oligopeptidase B from Serratia proteomaculans) (Serratia proteamaculans, UniProt B3VI58); experiment: initial rate of BAPNA hydrolysis; format: biochemical; settings: read-out: % inhibition at 5 mM
T1 construct: gene opdB; recombinant from E. coli BL21(DE3); 685 residues with tag; 76 kDa; monomer

[2] = target: T1, PSP (oligopeptidase B from Serratia proteomaculans); experiment: differential scanning calorimetry; format: binding; settings: 2 mM spermine; 25 mM Na-phosphate, pH 7.8; 2 mg/mL protein
[3] = tested on: N=C(N)NCCC[C@H](NC(=O)[C@H](CCCCN)NC(=O)OCc1ccccc1)C(=O)Nc1ccc([N+](=O)[O-])cc1; experiment: purified protein; format: biochemical, Serratia proteamaculans; settings: 0.1 M Tris-HCl, pH 8.0, 2% DMSO, 25 °C
[4] = tested on: N=C(N)NCCC[C@H](NC(=O)OCc1ccccc1)C(=O)N[C@@H](CCCNC(=N)N)C(=O)Nc1ccc([N+](=O)[O-])cc1; experiment: purified protein; format: biochemical, Serratia proteamaculans; settings: 0.1 M Tris-HCl, pH 8.0, 2% DMSO, 25 °C
[5] = tested on: N=C(N)NCCCC(NC(=O)c1ccccc1)C(=O)Nc1ccc([N+](=O)[O-])cc1; experiment: purified protein; format: biochemical, Serratia proteamaculans; settings: 0.1 M Tris-HCl, pH 8.0, 2% DMSO, 25 °C

Work on `NCCCNCCCCNCCCN` [spermine] yielded an inhibition at 5000 µM [1] of 20% and a dTmax [2] of 1 degree.
In the case of “PSP (oligopeptidase B from Serratia proteomaculans) (Serratia proteamaculans)”, the Km [3] is reported as 20.8 µM, the kcat [3] is reported as 50.8 s⁻¹ and the kcat/Km [3] is reported as 2.43e+06 M⁻¹ s⁻¹. It also gave a Km [4] of 4.35 µM, a kcat [4] of 36.4 s⁻¹ and a kcat/Km [4] of 8.35e+06 M⁻¹ s⁻¹. It also gave a Km [5] of 78.1 µM, a kcat [5] of 13.2 s⁻¹ and a kcat/Km [5] of 168000 M⁻¹ s⁻¹.

From paper PMC8533160, “First Crystal Structure of Bacterial Oligopeptidase B in an Intermediate State: The Roles of the Hinge Region Modification and Spermine” (Biology, 2021)
